B1: MEIG1 wild type, two-hybrid fusion from MEIG1/pGBKT7 [mouse] / Parkin co-regulated gene protein (PACRG), two-hybrid fusion from PACRG/pGADT7 [mouse] (parent complex)
chain 1: MATSDVKPKSISRAKKWSEEIENLYRFQQAGYRDEIEYKQVKQVAMVDRWPETGYVKKLQRRDNTFFYYNKERECEDKEVHKVKVYVY
chain 2: not shown

Variants of: B1
Experiment: yeast two-hybrid, α-galactosidase activity; Yeast strain AH109 co-transformed with PACRG/pGADT7 and MEIG1/pGBKT7 plasmids; parent: 65; read off a plot

Row | Variant | response
1 | chain 1 F66A | ~15
2 | chain 1 E20R | ~72
3 | chain 1 K9E | ~72
4 | chain 1 K57E | ~22
5 | chain 1 I36A | ~67
6 | chain 1 R13E | ~81
7 | chain 1 H81A | ~85

The next lines start with the values.

Row | response | Variant
8 | ~67 | chain 1 R62E
9 | ~58 | chain 1 Y25A
10 | ~72 | chain 1 V87A
11 | ~10 | chain 1 W50A
12 | ~5 | chain 1 Y68A

Variants of: B1
Experiment: yeast two-hybrid, α-galactosidase activity; Yeast strain AH109 co-transformed with PACRG/pGADT7 and MEIG1/pGBKT7 plasmids; parent: 64; read off a plot

Row | response | Variant
13 | ~2.2 | chain 1 W50A, chain 1 Y68A
14 | ~12 | chain 1 W50A
15 | ~3.3 | chain 1 Y68A
